Assay results published in paper PMC4103857, “Specific Interaction with Cardiolipin Triggers Functional Activation of Dynamin-Related Protein 1” (PLoS ONE, 2014).
Changes are numbered by the printed parent chain. Where “and” joins values, the source holds several entries; their conditions need not be identical. Identical values can stand only once.

How the values were obtained:
[1] = target: Dynamin-Related Protein 1 (Drp1) isoform 2 (human); test: SEC; gel filtration of the purified untagged isoforms; data not shown
[2] = target: the molecule itself; test: as above
[3] = target: the molecule itself; test: SEC; Drp1 (1 uM) incubated with GTP (1 mM) without liposomes in KCl buffer with 4 mM MgCl2, 30 min, 37 C; Sephadex S200; fractions immunoblotted with anti-Drp1

Q: How did the stoichiometry N [1] turn out when “Dynamin-Related Protein 1 (Drp1) isoform 2 (natural protein)” was run?
A: 2 and 4

B1: Dynamin-Related Protein 1 (Drp1) isoform 3 (natural protein, human, UniProt O00429-4 1-699, looked up)
chain: MEALIPVINKLQDVFNTVGADIIQLPQIVVVGTQSSGKSSVLESLVGRDLLPRGTGIVTRRPLILQLVHVSQEDKRKTTGEENGVEAEEWGKFLHTKNKLYTDFDEIRQEIENETERISGNNKGVSPEPIHLKIFSPNVVNLTLVDLPGMTKVPVGDQPKDIELQIRELILRFISNPNSIILAVTAANTDMATSEALKISREVDPDGRRTLAVITKLDLMDAGTDAMDVLMGRVIPVKLGIIGVVNRSQLDINNKKSVTDSIRDEYAFLQKKYPSLANRNGTKYLARTLNRLLMHHIRDCLPELKTRINVLAAQYQSLLNSYGEPVDDKSATLLQLITKFATEYCNTIEGTAKYIETSELCGGARICYIFHETFGRTLESVDPLGGLNTIDILTAIRNATGPRPALFVPEVSFELLVKRQIKRLEEPSLRCVELVHEEMQRIIQHCSNYSTQELLRFPKLHDAIVEVVTCLLRKRLPVTNEMVHNLVAIELAYINTKHPDFADACGLMNNNIEEQRRNRLARELPSAVSRDKVASGGGGVGDGVQEPTTGNWRGMLKTSKAEELLAEEKSKPIPIMPASPQKGHAVNLLDVPVPVARKLSAREQRDCEVIERLIKSYFLIVRKNIQDSVPKAVMHFLVNHVKDTLQSELVGQLYKSSLLDDLLTESEDMAQRRKEAADMLKALQGASQIIAEIRETHLW
notes: ORF amplified by PCR and cloned into pTYB1; numbers count on: isoform 3; also called Variant 3; Isoform-3 WT; source: E. coli Rosetta, purified (chitin resin with thiol-induced cleavage, Q sepharose, Sephadex S200)
Q: B1 was tested. Which “stoichiometry N” value [2] did it give?
A: 2 and 4

B2: Drp1 isoform 3 K557-560-569-571A (4KA mutant) (natural protein, human, UniProt O00429-4 1-699, looked up)
chain: B1 chain with K557A, K560A, K569A, K571A
notes: Dynamin-related protein 1 (Drp1), human, splice variant 3 (lacking 37 residues in the B insert), all four B insert lysines replaced by alanine; numbers count on: isoform 3; also called Drp1-4KA; Drp1 4KA mutant; source: E. coli Rosetta, purified (chitin resin with thiol-induced cleavage, Q sepharose, Sephadex S200)
Q: Does B2 bind [3]?
A: binds
